In paper PMC12468009, “Development of a QCM-D-Based Aptasensor for the Real-Time Detection of β-Lactoglobulin”:

Molecular target: T1, beta-lactoglobulin (β-LG) (bovine? (cow's milk), UniProt P02754 17-178)
T1 sequence: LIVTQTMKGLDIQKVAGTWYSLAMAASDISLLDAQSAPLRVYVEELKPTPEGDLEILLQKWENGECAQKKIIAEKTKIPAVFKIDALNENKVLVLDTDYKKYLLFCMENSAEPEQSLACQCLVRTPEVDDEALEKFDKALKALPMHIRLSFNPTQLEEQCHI
Test: dot blot; 100 µg β-LG on nitrocellulose, 400 pmol aptamer in PBS, 37 °C; Dot blot: PBS, 37 °C, 1 h, membrane blocked with 5% BSA/0.01% Tween 20; QCM-D: β-LG in PBS pH 3.5, 37 °C, aptamer 0.5 µM in TRIS with 0.1% BSA for immobilization; PBS (pH 7.4 stock) contains CaCl2 and MgCl2
Conditions: protein: native; tags: none; chain copies: 2; label: biotin; predicted secondary structure only

B1: Apt 356 (ssDNA)
DNA: GCCTGTTGTGAGCCTCCTAACCTGGTGTGCAAGGTGGACTCTCTTTATCTTGTTGTCAGTCTCATCACCGCATGCTTATTCTTGTCTCCC
modifications: 5'-biotin
B1: binds.
